According to the supplement of paper PMC9876800:

Test system: peptide library, one residue held at a place counted from the S/T acceptor
Assay: relative phosphorylation of the sub-library (ratio to the mean residue at this position); higher = residue favoured
Summary of the method: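 In 384-well plates, purified recombinant kinases (human or orthologue constructs) were incubated for 90 min under kinase-specific conditions with 50 μM biotinylated degenerate peptide sub-libraries and 50 μM ATP spiked with γ-32P-ATP. Each sub-library fixed a single residue at one position around a central Ser/Thr. Relative sub-library phosphorylation, measured by phosphorimaging and densitometry of streptavidin membrane spots, is given as a ratio to the mean residue at that position.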

Sequence of PRKCZ, construct: Full length, human (Q05513 whole entry, looked up): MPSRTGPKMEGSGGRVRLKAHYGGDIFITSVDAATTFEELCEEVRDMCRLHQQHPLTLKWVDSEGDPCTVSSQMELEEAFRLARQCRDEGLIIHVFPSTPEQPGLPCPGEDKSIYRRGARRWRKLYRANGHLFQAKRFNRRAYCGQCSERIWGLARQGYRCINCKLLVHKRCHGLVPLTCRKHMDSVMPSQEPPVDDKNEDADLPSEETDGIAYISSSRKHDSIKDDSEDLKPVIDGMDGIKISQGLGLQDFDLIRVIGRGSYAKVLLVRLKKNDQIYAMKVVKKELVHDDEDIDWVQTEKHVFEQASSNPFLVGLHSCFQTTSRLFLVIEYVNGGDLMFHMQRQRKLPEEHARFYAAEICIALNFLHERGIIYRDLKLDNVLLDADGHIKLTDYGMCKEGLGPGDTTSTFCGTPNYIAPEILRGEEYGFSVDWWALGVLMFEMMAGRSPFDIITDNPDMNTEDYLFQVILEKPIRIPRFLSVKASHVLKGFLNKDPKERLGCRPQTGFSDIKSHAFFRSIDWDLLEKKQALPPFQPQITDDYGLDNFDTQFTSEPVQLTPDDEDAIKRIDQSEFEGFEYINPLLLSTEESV

PRKCZ, construct: Full length, human (from UniProt Q05513)
relative phosphorylation
Details	at +1	at +2	at +3	at +4	at -1	at -2	at -3	at -4	at -5
A fixed	0.673	0.759	0.778	1	1.16	0.809	0.78	1.13	1.32
D fixed	0.193	0.206	0.324	0.596	0.387	0.399	0.425	0.666	0.79
E fixed	0.293	0.203	0.319	0.563	0.375	0.355	0.437	0.661	0.732
F fixed	1.37	0.662	0.927	0.827	0.468	1	0.842	0.827	1.23
G fixed	1.1	0.52	1.07	1.07	1.21	1.45	1.28	1.57	1.52
H fixed	0.752	1.35	1.33	1.35	1.06	1.07	1.08	1.03	1.08
I fixed	0.868	0.646	0.646	0.608	0.259	0.288	0.378	0.468	0.533
K fixed	2.46	2.13	2.15	2.05	3.12	1.18	1.91	1.29	1.15
L fixed	0.768	0.577	0.834	0.64	0.457	0.47	0.535	0.59	0.803
M fixed	1.42	0.912	0.759	0.706	0.755	0.731	0.659	0.783	0.694
N fixed	0.832	0.908	0.975	1.08	1.26	1.19	1.11	1.4	1.25
P fixed	0.344	0.512	0.706	1.17	0.986	1.16	1.1	1.45	1.12
Q fixed	1.23	0.916	0.978	1.14	1.19	0.983	1.08	1.04	0.788
R fixed	2.39	4.07	2.08	1.34	2.43	2.99	3.2	1.45	1.31
V fixed	0.844	0.682	0.671	0.703	0.406	0.342	0.415	0.483	0.607
W fixed	0.61	0.803	1.28	1.13	0.579	0.973	0.909	1.33	1.23
Y fixed	0.841	1.14	1.17	1.01	0.89	1.61	0.855	0.824	0.837
pThr fixed	0.461	0.391	0.519	0.651	0.314	0.632	0.696	0.847	0.985
pTyr fixed	0.363	0.396	0.623	0.538	0.451	0.621	0.831	0.761	0.857
